Legend:
Test in all cases: cell-based or functional assay
[1] = target: HIV-1 HXB2 env (X4) (gp120 and gp41) (HIV-1 strain HXB2) (UniProt P04578)
[2] = target: HIV-1 JRFL (R5) env (gp120 and gp41) (HIV-1 strain JRFL)
[3] = target: HIV-1 NL4-3 (CXCR4-tropic) env (gp120 and gp41) (HIV-1 strain NL4-3)
[4] = target: HIV-1 91US005 (R5) env (gp120 and gp41) (HIV-1 strain 91US005)
[5] = target: HIV-1 92HT599 (CXCR4-tropic) env (gp120 and gp41) (HIV-1 strain 92HT599)
[6] = target: HIV-1 Ba-L (R5) env (gp120 and gp41) (HIV-1 strain Ba-L)
[7] = target: HIV-1 ADA (R5) env (gp120 and gp41) (HIV-1 strain ADA)
[8] = target: HIV-1 IIIB (X4) env (gp120 and gp41) (HIV-1 strain IIIB)

Sequence of Griffithsin (P84801 whole entry X31A): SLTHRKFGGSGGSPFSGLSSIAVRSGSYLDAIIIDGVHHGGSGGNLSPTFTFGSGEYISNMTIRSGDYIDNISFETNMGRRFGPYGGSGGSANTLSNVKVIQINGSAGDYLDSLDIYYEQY

## Griffithsin (from UniProt P84801 1-121)
[1]
  X4 fusion assay IC50: 0.468 nM
[2]
  Inhibition of HIV single round pseudovirus in TZM-bl cells, JRFL (R5), IC50: 0.035 nM
  Inhibition of HIV single round pseudovirus in TZM-bl cells, JRFL (R5), IC90: 1.25 nM
[3]
  Inhibition of HIV-1 Replication in PBMCs, NL4-3 (CXCR4-tropic), IC50: 0.17 nM
  Inhibition of HIV-1 Replication in PBMCs, NL4-3 (CXCR4-tropic), IC90: 0.725 nM
[4]
  Inhibition of HIV virus, 91US005 (R5) in PBMC, IC50: 0.16 nM
  Inhibition of HIV virus, 91US005 (R5) in PBMC, IC90: 0.51 nM
  Inhibition of HIV-1 Replication in PBMCs, 91US005 (CCR5-tropic), IC50: 0.28 nM
  Inhibition of HIV-1 Replication in PBMCs, 91US005 (CCR5-tropic), IC90: 0.76 nM
[5]
  Inhibition of HIV-1 Replication in PBMCs, 92HT599 (CXCR4-tropic), IC50: 0.74 nM
  Inhibition of HIV-1 Replication in PBMCs, 92HT599 (CXCR4-tropic), IC90: 1.86 nM
[6]
  Inhibition of HIV virus, Ba-L (R5) in MAGI cells, IC50: 0.04 nM
  Inhibition of HIV virus, Ba-L (R5) in MAGI cells, IC90: 0.515 nM
  Inhibition of HIV virus, Ba-L (R5) in PBMC, IC50: 0.28 nM
  Inhibition of HIV virus, Ba-L (R5) in PBMC, IC90: 0.76 nM
[7]
  Inhibition of HIV single round pseudovirus in TZM-bl cells, ADA (R5), IC50: 8 pM
  Inhibition of HIV single round pseudovirus in TZM-bl cells, ADA (R5), IC90: 0.164 nM
  Inhibition of HIV virus, ADA (R5) in MAGI cells, IC50: 0.03 nM
  Inhibition of HIV virus, ADA (R5) in MAGI cells, IC90: 0.45 nM
  R5 fusion assay IC50: 1.3 nM
  R5 fusion with competition IC50: 1.73 nM
  R5 fusion with wash-out on ADA cells IC50: 4.28 nM
  R5 fusion with wash-out on P5L cells IC50: 7.34 nM
[8]
  Inhibition of HIV virus, IIIB (X4) in MAGI cells, IC50: 0.145 nM
  Inhibition of HIV virus, IIIB (X4) in MAGI cells, IC90: 0.89 nM
